A short description of the data set: protein stability index of a GFP-peptide fusion (GPS, HEK-293T) (PSI 1-6); higher = more stable.
The mark [1] stands for this setting: treatment: DMSO, c terminus: a fixed tail appended.
Setting [2] is: treatment: MLN4924 1 uM, 8 h, c terminus: a fixed tail appended.
Where [3] appears, read: treatment: DMSO, c terminus: native.
The mark [4] stands for this setting: treatment: MLN4924 1 uM, 8 h, c terminus: native.

± gives the standard deviation.
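Further: 24-mer peptide tiles fused after GFP, lentivirally expressed, FACS-sorted into six equal bins by GFP/DsRed ratio, decoded by Illumina sequencing, PSI is the read-weighted mean bin number.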

With EPHGKMFNEQTWEVSQQDPSHGEV [ZSCAN9], the protein stability index under setting [1] was 5.06 ± 0.16 and the protein stability index under setting [2] was determined as 5.04 ± 0.18.

Consider TFPDLESEFQAALSRKVAELVHFL [MAGEA3], for which the protein stability index reads like this: under setting [1], 2.34 ± 0.37; under setting [2], 2.45 ± 0.33.

Regarding STPKLTSRSAAQDLDRMGVMTLPS [PPFIA4], the protein stability index under setting [1] turned out to be 4.03 ± 0.28 and the protein stability index under setting [2] is 3.97 ± 0.056.

Regarding RSEQSVKLRRQVIQVVLNGMESYQ [ZER1], the protein stability index runs as follows: under setting [1], 2.41 ± 0.13; under setting [2], 2.32 ± 0.18.

For the sequence RDNAELEKLIQERSQQQEPLLCPS [KRT34], the protein stability index under setting [1] is 4.94 ± 0.13 and the protein stability index under setting [2] turned out to be 4.87 ± 0.27.

Regarding PMPLSEGKSILLFGGAAAVAILAV [BCL2L13], the protein stability index is, setting by setting: under setting [1], 2.77 ± 0.76; under setting [2], 2.75 ± 0.69.

ACGGTRDQLFMQEKARQLLGRLKP [MYBL2] came in with a protein stability index under setting [1] of 3.39 ± 0.54 and a protein stability index under setting [2] of 3.29 ± 0.38.

Take IGSSVMAASLVTMGIVNLNIHMNF [SLC2A12]: the protein stability index by setting is: under setting [1], 3.05 ± 0.24; under setting [2], 3.13 ± 0.17.

Consider AAKQLEYQQLEDDKLSQKSSSSKL [EPB41L3], for which the protein stability index amounted to 5 ± 0.64 under setting [1] and 4.92 ± 0.33 under setting [2].

On to AELFSYVLQDRAAKGSLGTQIGFA [FEM1A], for which the protein stability index is 2.16 ± 0.21 under setting [1] and 2.11 ± 0.23 under setting [2].

As to MEKSSFTEYIESPDVENEVKRLLR [TAF7L], the protein stability index under setting [1] stood at 3.79 ± 0.28 and the protein stability index under setting [2] is 3.83 ± 0.23.

LTFFAFLHCWLNAFAEMLRFGDRM [SOAT1]: the protein stability index runs as follows: under setting [1], 3.4 ± 0.23; under setting [2], 2.9 ± 0.5.

GDIASGYHYGVASCEACKAFFKRT [ESRRG]: the protein stability index by setting is: under setting [1], 2.76 ± 0.38; under setting [2], 3.02 ± 0.41.

YKSFSKEQQTMDNLEKQLICPICL [TRIM55]: the protein stability index was determined as 2.72 ± 0.38 under setting [1] and 2.77 ± 0.8 under setting [2].

Take LYPREGKYNHAACFGLQPGCLLPD [NLN]: the protein stability index under setting [1] was 2.96 ± 0.33 and the protein stability index under setting [2] was determined as 3.1 ± 0.44.

Consider IHLREDLVQDQDLEAIRKQDLVEL [ZER1], for which the protein stability index came to 4.5 ± 0.096 under setting [1] and 4.56 ± 0.28 under setting [2].

Take LYGLGSGSSYVQNGTGNAYEEEAN [CNOT7]: the protein stability index was 4.74 ± 0.2 under setting [1] and 4.84 ± 0.24 under setting [2].

On to EKTQKNQCWKSLFIDTYSDVGRYI [FBXO3], for which the protein stability index was found to be 2.53 ± 0.73 under setting [1] and 2.15 ± 0.33 under setting [2].

EEEVVEGEKEVEALKKSADWVSDW [BNIP3L]: the protein stability index was found to be 5.08 ± 0.25 under setting [1] and 5.36 ± 0.34 under setting [2].

For the sequence RGENVVLLGEIDLEKESDTPLQQV [LSM1], the protein stability index under setting [1] is 4.96 ± 0.27 and the protein stability index under setting [2] came to 4.79 ± 0.18.

Consider ESGASIEDHNENGHTPLMEAGSAG [ANKRD17], for which the protein stability index runs as follows: under setting [1], 5.47 ± 0.25; under setting [2], 5.35 ± 0.28.

Sequence TSEGTLELQQRNPKAERLRWSPAQ [ZNF232] returned a protein stability index under setting [1] of 4.27 ± 0.19 and a protein stability index under setting [2] of 4.25 ± 0.15.

Regarding IIELLGSIPRHFALSGKYSREFFN [SRPK2], the protein stability index came out at 2.75 ± 0.54 under setting [1] and 2.56 ± 0.39 under setting [2].

Turning to RTLPNASTVDNIRSIFGNAVSREL [MLH1], the protein stability index by setting is: under setting [1], 3.55 ± 0.12; under setting [2], 3.54 ± 0.17.

AATDITGFGILGHSQNLAKQQRNE [SEPHS2] displayed a protein stability index under setting [1] of 4.68 ± 0.38 and a protein stability index under setting [2] of 4.57 ± 0.31.

In turn, KEEKCQGKGDDSETDKNNCSNAKA [KCNA4] gave a protein stability index under setting [1] of 5.49 ± 0.088 and a protein stability index under setting [2] of 5.55 ± 0.19.

On to GHIILNSMHKYQPRLHIVKADENN [TBX5], for which the protein stability index worked out at 2.82 ± 0.48 under setting [1] and 2.95 ± 0.018 under setting [2].

With VEAMYCYLRCIQSEVSFEGAYGNL [SMG5], the protein stability index under setting [1] came to 3.13 ± 0.35 and the protein stability index under setting [2] is 3.12 ± 0.63.

For the sequence SSASSEQGLLGRSPPTRPVPGHRS [SPRY1], the protein stability index under setting [1] is 4.82 ± 0.27 and the protein stability index under setting [2] is 4.8 ± 0.12.

The sequence ILLSKEPDGVWAYNRGEHPIFVNS [SMAD6] returned a protein stability index under setting [1] of 2.2 ± 0.19 and a protein stability index under setting [2] of 2.44 ± 0.2.

Regarding LSVDPEEEREEGPPRIPQADQWKS [RHOBTB1], the protein stability index reads like this: under setting [1], 5.28 ± 0.075; under setting [2], 5.26 ± 0.24.

Take MWAHSMTVQDYQDLIDRGWRRSGK [ATE1]: the protein stability index was 3.11 ± 0.14 under setting [1] and 3.27 ± 0.24 under setting [2].

Regarding LNRRNGSLRIALSEHLKQRREVAK [EDNRA], the protein stability index under setting [1] came out at 3.27 ± 0.45 and the protein stability index under setting [2] amounted to 3.25 ± 0.27.

Sequence TSSASVTTTSNASGRRTSDVRRP [KRT13] yielded a protein stability index under setting [3] of 2.88 ± 0.77 and a protein stability index under setting [4] of 3.58 ± 0.76.

FRRFAVHGDARATGREMHGKNWSK [TPPP]: the protein stability index amounted to 3.62 ± 0.12 under setting [1] and 3.65 ± 0.33 under setting [2].

Consider QSVSYSKLLSVIVWMLMLLLAVPN [P2RY14], for which the protein stability index was 3.24 ± 0.27 under setting [1] and 3.17 ± 0.49 under setting [2].

Take LGHAAAFSDDCDLPSAQDINRLVG [GLT8D2]: the protein stability index was found to be 4.23 ± 0.18 under setting [1] and 4.43 ± 0.24 under setting [2].

In the case of ATEPATCFPSTQKPTEPSVPVQPL [FBF1], the protein stability index reads like this: under setting [1], 4.9 ± 0.099; under setting [2], 4.96 ± 0.1.

Turning to YSDNPCSCSQSHCCSRYLCMGAMS [SPRY1], the protein stability index reads like this: under setting [1], 2.62 ± 0.22; under setting [2], 2.71 ± 0.35.

Consider EMAEQLMTLAYDNGINLFDTAEVY [KCNAB2], for which the protein stability index reads like this: under setting [1], 2.3 ± 0.44; under setting [2], 2.44 ± 0.29.

Regarding LSQALNGLSDRAKEAKEFLVQLRN [TRIM9], the protein stability index by setting is: under setting [1], 3.29 ± 0.41; under setting [2], 3.26 ± 0.32.

For ETRAEDPPWFEGLESRFQSKSGYL [DFFB], the protein stability index runs as follows: under setting [1], 3.56 ± 0.063; under setting [2], 3.63 ± 0.069.

With KKRFTRRSHLIGHQRTHSEEETYK [ZNF449], the protein stability index was 4.12 ± 0.42 under setting [1] and 4.23 ± 0.46 under setting [2].

SVTKEGLELPEDEEEKKKMEESKA [HSP90AB1]: the protein stability index came to 5.68 ± 0.32 under setting [1] and 5.54 ± 0.39 under setting [2].

On to DLLTFVQNLCKGLSQPTTNLVAGC [NEUROD6], for which the protein stability index by setting is: under setting [1], 3 ± 1; under setting [2], 2.47 ± 0.33.

For IKGLQRKERLKPAHIHLQQLTCFS [KRT34], the protein stability index reads like this: under setting [1], 2.3 ± 0.39; under setting [2], 2.36 ± 0.37.

For the sequence EPVAAGSGIPEVKCYLNGVKVPGI [CLCN6], the protein stability index was 3.19 ± 0.61 under setting [1] and 3.59 ± 0.34 under setting [2].

In turn, DMCMKVPDDPEHLAARRQWRDECL [CRYL1] had a protein stability index under setting [1] of 4.47 ± 0.22 and a protein stability index under setting [2] of 4.56 ± 0.2.

Take CDDYFFIAHRGERRGIGGIFFDDL [CPOX]: the protein stability index by setting is: under setting [1], 2.16 ± 0.31; under setting [2], 1.96 ± 0.45.

Sequence TNEAACLLDNPLCADVLFILQDQE [RHOBTB1] had a protein stability index under setting [1] of 3.66 ± 0.24 and a protein stability index under setting [2] of 3.82 ± 0.24.

HPSENIIAVAATNNLYIFQDKVN [PPP2R2B] had a protein stability index under setting [3] of 2.44 ± 0.22 and a protein stability index under setting [4] of 2.64 ± 0.21.

As to KAAALPPFPLGASAQNGLASSLPA [PLAGL1], the protein stability index under setting [1] turned out to be 3.75 ± 0.21 and the protein stability index under setting [2] worked out at 3.82 ± 0.21.

Regarding ALDEIKLLKCVRESDPSDPNKDMV [SRPK2], the protein stability index was found to be 4.75 ± 0.23 under setting [1] and 4.54 ± 0.26 under setting [2].

(Values after the supplement of paper PMC10567573.)
